In US8470599B2, “Renal progenitor cells from embryonic stem cells” (The Regents of the University of Michigan, priority 2005, dated 2013):

Tested on: EB derived cells in E12.5 cultured kidney rudiments
Assay: Injection of EB derived cells into E12.5 cultured kidney rudiments, lacZ / laminin / LTA staining
Format: cell-based, mouse
Settings: for contribution to developing tubules: compared to untreated EB cells, rudiments 4 or 5 days after injection
Method: Cryosections from kidney rudiments were stained for lacZ expression (A & C) and with anti-laminin antibodies (B & D). […] C & D) Many lacZ positive cells from control EBs were found in large and small aggregates (arrows) that remained mesenchymal in appearance and were not surrounded by laminin containing basement membranes. Some blue cells from control EBs were also found in tubules. Magnification bars are 100 microns.
E12.5 kidney rudiments were injected with RA7 treated EB cells (A-F) or control EB cells (G & H) and stained for lacZ, laminin, and LTA binding. […] Arrows point to glomerular tufts. B) Laminin staining of same tissue as in A. C & D) Co-localization of lacZ positive cells in developing proximal tubules (arrows) that also stain with LTA lectin (green) and are surrounded by laminin containing basement membranes (red). E & F) Another developing proximal tubule derived from RA7 treated EB cells (arrow) stained as above. G & H) Many control EB cells localize to interstitial and peripheral mesenchyme (arrows), though a small number of lacZ positive cells are also found in tubules.
This example describes cell culture and microinjection techniques utilized in experiments conducted during the course of the present invention. Mouse ES cells (R26) were grown in high glucose DMEM (GIBCO BRL), 10% fetal bovine serum (Atlanta Biologicals), 0.1 mM β-mercaptoethanol (Sigma), 4 mM glutamine (GIBCO BRL), 20 unit/ml PEN/STREP (GIBCO BRL), 0.1 mg/ml G418 (GIBCO BRL), and 10^3 unit/ml rLIF (Chemicon) on a 0.1% gelatin-coated tissue culture plate at 37° C. CO2 incubator for 2 days. The ES cells were transferred using 0.05% trypsin plus 0.53 mM EDTA (GIBCO BRL) to a 100-mm bacteriological petri dish (Falcon) to induce embryoid body (EB) formation. The EB suspension was cultured in the same medium without rLIF for 2 days and then transferred to 60-mm tissue culture plates coated with 0.1% gelatin. Each 60-mm tissue culture plate contained about 100 EBs. […]

Molecule	contribution to developing tubules	ability of EB cells to contribute to tubules in vitro (addition of 100 ng/ml bmp4)
bmp-7: growth factor (R & D Systems), third component of the nephrogenic cocktail (protein, UniProt P18075 293-431, looked up) Bone morphogenetic protein 7: STGSKQRSQNRSKTPKNQEALRMANVAENSSSDQRQACKKHELYVSFRDLGWQDWIIAPEGYAAYYCEGECAFPLNSYMNATNHAIVQTLVHFINPETVPKPCCAPTQLNAISVLYFDDSSNVILKKYRNMVVRACGCH	enhanced	
bmp4: growth factor (R & D Systems) added to retinoic acid and activin-a treated EBs (protein, UniProt P12644 293-408, looked up) Bone morphogenetic protein 4: SPKHHSQRARKKNKNCRRHSLYVDFSDVGWNDWIVAPPGYQAFYCHGDCPFPLADHLNSTNHAIVQTLVNSVNSSIPKACCVPTELSAISMLYLDEYDKVVLKNYQEMVVEGCGCR	did not integrate	completely inhibited
